Residue numbers refer to the chain shown, from its start. Names may count otherwise. Read-outs that look alike come from different tables or passages of the source.
B1: L2P12 G9: acrylodan-labeled rI-FABP-L72A mutein: M18 L, G31 WT, F55 WT, A73 V (protein, UniProt P02693 2-132, looked up, variant M18L L72A A73V)
Fatty acid-binding protein, …: AFDGTWKVDRNENYEKFLEKMGINVVKRKLGAHDNLKLTITQEGNKFTVKESSNFRNIDVVFELGVDFAYSAVDGTELTGTWTMEGNKLVGKFKRVDNGKELIAVREISGNELIQTYTYEGVEAKRIFKKE
modifications: acrylodan label
notes: acrylodan-labeled rI-FABP-L72A mutein: M18 L, G31 WT, F55 WT, A73 V
B2: L5P16 H4: UCB-responsive probe from rI-FABP-L72A; mutations 126K 73F 72A (protein, UniProt P02693 2-132, looked up, variant L72A A73F R126K)
Fatty acid-binding protein, …: B1 Fatty acid-binding protein, … with L18M, V73F, R126K
modifications: acrylodan label
notes: UCB-responsive probe from rI-FABP-L72A; mutations 126K 73F 72A
B3: L2P21 C1: acrylodan-labeled rI-FABP-L72A mutein: M18 I, G31 Y, F55 WT, A73 V (protein, UniProt P02693 2-132, looked up, variant M18I G31Y L72A A73V)
Fatty acid-binding protein, …: B1 Fatty acid-binding protein, … with L18I, G31Y
modifications: acrylodan label
notes: acrylodan-labeled rI-FABP-L72A mutein: M18 I, G31 Y, F55 WT, A73 V
B4: L2P22 B1: UCB-responsive probe from rI-FABP-L72A; mutations 18Y 31V 55V 72A (protein, UniProt P02693 2-132, looked up, variant M18Y G31V F55V L72A)
Fatty acid-binding protein, …: B1 Fatty acid-binding protein, … with L18Y, G31V, F55V, V73A
B5: L2P14F7: UCB probe from rI-FABP-L72A; mutations 18G 31 M 72A (protein, UniProt P02693 2-132, looked up, variant M18G G31M L72A)
Fatty acid-binding protein, …: B1 Fatty acid-binding protein, … with L18G, G31M, V73A
modifications: fluorescent label
notes: UCB probe from rI-FABP-L72A; mutations 18G 31 M 72A

Experiments:
[1] = Probe fluorescence ratio response to palmitoleate:BSA complex, relative to ADIFAB2 (ΔR/ΔRAD2); type: binding
[2] = Probe fluorescence ratio response to linoleate:BSA complex, relative to ADIFAB2 (ΔR/ΔRAD2); type: binding; details: fluorescence response (R-Ro) relative to ADIFAB2, linoleate
Method in brief: (§1)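 Fatty acids presented as BSA complexes (6 μM BSA in HEPES) set to ΔR ≈0.4 with ADIFAB2, i.e. unbound FFA 100-1000 nM. Background-subtracted ratio from excitation 375 nm, emission 550/457 nm; ΔR versus fatty-acid-free BSA, divided by the ADIFAB2 ΔR.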

[3] = Mutant probe screening: baseline fluorescence ratio Ro and fatty acid response phenotype; type: binding; details: 7 FFA: AA, LNA, LA, OA, PA, POA, SA
Method: The intensity ratio (“R” value) for a given probe is determined. The ratio is calculated using the following formula: R=Fλ1/Fλ2 wherein, Fλ1, is the measured fluorescence intensities (intensity of sample with probe present minus intensity of sample without probe present) at wavelength 1 and Fλ2 is the measured fluorescence intensities (intensity of sample with probe present minus intensity of sample without probe present) at wavelength 2. Then, for a given probe, ΔR, the difference in R value between the measurement in the presence of the analyte and in the absence of the analyte, is calculated as follows: ΔR=R+analyte−R0 The ΔR value for a given probe is then compared to a reference probe, for example, ADIFAB or ADIFAB2, by ΔR/ΔRreference. […] Measurements of fluorescence intensities are obtained using standard techniques.
Plates were prepared and read in two stages. […] The background fluorescence was then measured at the same wavelengths as used for ADIFAB2 using a Fluorolog-3 spectrofluorometer with an external Micromax 384 fluorescence plate reader (Jobin Yvon). In the second stage, 30 μL aliquots of the mutant probes were added to multiple wells of the plate, one for each fatty acid and one with fatty acid free BSA only, and the fluorescence intensity at each wavelength was again measured on the plate reader. […]

[4] = Probe fluorescence ratio response to linolenate:BSA complex, relative to ADIFAB2 (ΔR/ΔRAD2); type: binding; details: fluorescence response (R-Ro) relative to ADIFAB2, linolenate
Method in brief: as §1

[5] = Probe fluorescence ratio response to palmitate:BSA complex, relative to ADIFAB2 (ΔR/ΔRAD2); type: binding; details: fluorescence response (R-Ro) relative to ADIFAB2, palmitate
Method in brief: as §1

[6] = Probe fluorescence ratio response to stearate:BSA complex, relative to ADIFAB2 (ΔR/ΔRAD2); type: binding
[7] = Probe fluorescence ratio response to arachidonate:BSA complex, relative to ADIFAB2 (ΔR/ΔRAD2); type: binding; details: fluorescence response (R-Ro) relative to ADIFAB2, arachidonate
Method in brief: as §1

[8] = Probe fluorescence ratio response to oleate:BSA complex, relative to ADIFAB2 (ΔR/ΔRAD2); type: binding; details: fluorescence response (R-Ro) relative to ADIFAB2, oleate
Method in brief: as §1

[9] = Binding isotherm: probe titrated with UCB, Kd
Method: (§2) Larger preparations of select probes were prepared for quantitative determination of binding affinities. Binding isothermns were performed by measuring the fluorescence intensity for 1 μM of a given probe as the probe was titrated with known quantities of UCB. […] Table 3 lists the Kd values and mutations for some example probes. […] This property was confirmed by titration of a mixture of 0.5 μM UCB and 1 μM L2P14F7 with sodium oleate. […] Oleic acid is the most abundant FFA in serum, and measurements of normal serum samples indicate that typical unbound concentrations of oleic acid are less than 1 nM. By using non-responsive probes from FFA screening to conduct a secondary screening with other unbound analytes, a UCB-sensitive probe that has a negligible response to the major FFA in blood has been generated from a rI-FABP-L72A mutant.

[10] = Screening of FFA-insensitive probes for response to UCB:BSA complexes (ΔI/Io); type: binding; details: fractional change in fluorescence intensity; for ΔI/Io 1:1 UCB:BSA 440 nm / ΔI/Io 1:1 UCB:BSA 500 nm: UCB:BSA 1:1; for ΔI/Io 1:1 UCB:BSA 440 nm / ΔI/Io 1:2 UCB:BSA 440 nm: emission 440 nm; for ΔI/Io 1:1 UCB:BSA 500 nm / ΔI/Io 1:2 UCB:BSA 500 nm: emission 500 nm; for ΔI/Io 1:2 UCB:BSA 440 nm / ΔI/Io 1:2 UCB:BSA 500 nm: UCB:BSA 1:2
Method: A probe for unbound unconjugated bilirubin (UCBu) was developed and used to measure concentrations of UCBu in plasma spiked with a defined quantity of unconjugated bilirubin (UCB). Using 384-well plates, 335 mutant probes that were insensitive to FFA were screened for their response to UCB:BSA complexes at UCB:BSA ratios of 1:1 and 1:2 in aqueous buffer. All probes were prepared from rI-FABP-L72A with 1 to 5 mutations. Screening was conducted by comparing the fractional change in fluorescence intensity (ΔI/Io, where ΔI is the difference in probe intensity in the presence and absence of UCB and Io is the intensity in the absence of UCB) for the probes with that for ADIFAB2. This value was calculated for two emission wavelengths: 440 and 500 nm. […] The emitted fluorescence of these probes is quenched by binding of UCB.

[11] = Titration of UCB and probe mixture with sodium oleate; type: binding; details: mixture of 0.5 μM UCB and 1 μM probe; after 1 μM total oleate added (FIG. 4)
Method: as §2

[12] = Probe response to plasma samples from healthy adult donors, with and without 5 μM UCB
Method: The response of L2P14F7 to plasma samples from healthy adult donors, for which the UCBu concentration is expected to be about 1 nM or less, was measured (FIG. 5). Samples were diluted to 1% by volume in pH 7.4 HEPES buffer.

[13] = fluorescence response (R-Ro) relative to ADIFAB2
[14] = fluorescence response (R-Ro) relative to ADIFAB2, listed as L2P12G9
[15] = UCB, at 22° C., read-out: Kd (nM) at 22° C.
[16] = fluorescence response (R-Ro) relative to ADIFAB2, listed as L2P21C1

| Molecule | ΔR/ΔRAD2 POA [1, 13] | ΔR/ΔRAD2 LA [2] | phenotype (fatty acid response) relative to ADIFAB2 [3] | ΔR/ΔRAD2 LNA [4] | ΔR/ΔRAD2 PA [5] | ΔR/ΔRAD2 SA [6, 13] | ΔR/ΔRAD2 AA [7] | ΔR/ΔRAD2 OA [8] | Kd [9, 15] [nM] | ΔI/Io 1:1 UCB:BSA 440 nm [10] | ΔI/Io 1:1 UCB:BSA 500 nm [10] | ΔI/Io 1:2 UCB:BSA 440 nm [10] | ΔI/Io 1:2 UCB:BSA 500 nm [10] | other results |
| --- | --- | --- | --- | --- | --- | --- | --- | --- | --- | --- | --- | --- | --- | --- |
| B1 | −0.01 | −0.07 | response only for AA and SA | 0.01 | 0.03 | 0.48 | 0.54 | 0.07 | – | – | – | – | – | ΔR/ΔRAD2 POA [1, 14]: 0.0; ΔR/ΔRAD2 LA ([2]; listed as L2P12G9): −0.1; ΔR/ΔRAD2 LNA ([4]; listed as L2P12G9): 0.0; ΔR/ΔRAD2 PA ([5]; listed as L2P12G9): 0.0; ΔR/ΔRAD2 SA [6, 14]: 0.4; ΔR/ΔRAD2 AA ([7]; listed as L2P12G9): 0.5; ΔR/ΔRAD2 OA ([8]; listed as L2P12G9): 0.0 |
| B2 | – | – | – | – | – | – | – | – | 390 | −0.69 | −0.64 | −0.37 | −0.31 | – |
| B3 | 3.52 | 4.04 | greater response for all 7 FFA | 3.73 | 2.54 | 2.02 | 3.27 | 3.20 | – | – | – | – | – | ΔR/ΔRAD2 POA [1, 16]: 2.9; ΔR/ΔRAD2 LA ([2]; listed as L2P21C1): 3.4; ΔR/ΔRAD2 LNA ([4]; listed as L2P21C1): 3.1; ΔR/ΔRAD2 PA ([5]; listed as L2P21C1): 2.0; ΔR/ΔRAD2 SA [6, 16]: 1.6; ΔR/ΔRAD2 AA ([7]; listed as L2P21C1): 2.8; ΔR/ΔRAD2 OA ([8]; listed as L2P21C1): 2.7 |
| B4 | – | – | – | – | – | – | – | – | 550 | −0.70 | −0.68 | −0.36 | −0.35 | – |
| B5 | – | – | – | – | – | – | – | – | – | – | – | – | – | response on titration with sodium oleate [11]: no change in response; Kd ([9]; non-linear fit to binding isotherm, 1 μM probe titrated with UCB (FIG. 3), read-out: Kd): 150 nM; response to plasma samples ([12]; healthy adult donors, samples diluted to 1% by volume in pH 7.4 HEPES buffer): Little to no response; probe fluorescence after spiking plasma samples with UCB ([12]; samples A and B spiked with 5 μM UCB): substantial decrease in the fluorescence |

— patent publication US20050244864A1, “Development and use of fluorescent probes of unbound analytes” (priority 2004, published 2005)
